Experimental data published in patent US20210355221A1, “Targeting the Non-Canonical NFkB Pathway in Cancer Immunotherapy” (The General Hospital Corporation, priority 2018, published 2021).

What was measured:
MC38 tumors = assay: MC38 tumor model: tumor growth, survival, re-challenge; assay type: in vivo, mice; settings: for antitumor response, MC38 tumors: MC38 tumor-bearing mice, treatment as labelled
Description: MC38 tumor cell lines were obtained from Dr. Mark Smyth (QIMR Berghofer). MC38 cells were implanted at 2×10^6 cells in the flank. B16F10 cell lines were obtained from ATCC. B16F10 cells were implanted intradermally at 0.5×10^6 cells in the flank. All tumor models were allowed to grow for one week prior to therapy. Tumor sizes were approximately 75 mm^3 before treatment initiation, and starting tumor volumes were normalized between treatment groups. Percent tumor changes were calculated as percent difference of mouse tumor volume from pre-treatment baseline, measured using digital caliper. Lung seeding B16F10 models received 0.5×10^6 cells intravenously and were allowed to grow for 10 days from the point of implantation. Mouse tumors were allowed to grow to a maximum of 2 cm in diameter, or until tumor ulceration occurred. These were considered as endpoints for survival experiments in accordance with MGH IACUC regulations.
(§1) Tumor bearing mice, with a tumor size of approximately 75 mm^3, were treated with 200 μg of aPD-1 and/or 100 μg of aCD40 intraperitoneally for immunotherapy studies. For combination treatment studies, both aPD-1 and aCD40 were administered at the same time. For IL-12 neutralization studies, mice were dosed with 500 μg of anti-IL-12p40 Clone 17.8 daily for 5-7 days following aPD-1 therapy. Neutralization of IFN-γ in vivo was performed by administering 1 mg of anti-IFN-γ Clone XMG1.2 initially with 500 μg of anti-IFN-γ dosed daily intraperitoneally for days 1-3. The cIAP1/2 inhibitor AZD5582 (Hennessy et al., 2013) was purchased from Selleck Chem and was resuspended in sterile saline. Mice received a single dose of AZD5582 at 10 mg/kg, intraperitoneally. […]
Long-term surviving mice from aPD-1 and aCD40 combination therapy were re-challenged with either MC38 or B16F10 tumors at 50 days following primary tumor rejection. […] Naive C57BL/6J mice were implanted alongside re-challenge mice, and these mice were monitored for tumor growth for 2 weeks following implantation. […]

[1] = system: Flt3L-derived bone marrow DCs; assay: Flt3L-derived bone marrow DCs cultured in vitro with AZD5582, IL-12p40 transcripts; assay type: cell-based; settings: 24 hours, various concentrations of AZD5582
Description: FIGS. 13A-C. IL-12 Expressing Cells Express More CD40 and […] can Induce IL-12 Production In vitro. (A) Flow cytometry of MC38 tumors from IL-12p40-eYFP reporter mice, stained for CD40 expression; n=7 per group. (B) Flow cytometry of CD40 expression from the following tumor immune cell populations: Non-Antigen Presenting Cells (non-APCs, defined as F4/80−CD11c−MHCII−), macrophages (F4/80+) and IL-12+ DCs (CD11chi MHCIIhi IL-12+); n=4 per group. (C) Flt3L-derived bone marrow DCs were cultured in vitro with various concentrations of AZD5582 for 24 hours, and were harvested for RNA. Shown is fold change expression of IL-12p40 transcripts compared to untreated conditions (n=3 per condition). Results are representative of at least 2 independent experiments. ****p<0.0001; Student's two tailed t-test.

IL-12p40-eYFP^+ cells = assay: Intravital imaging of MC38 tumors in IL-12p40-eYFP reporter mice; assay type: in vivo; settings: after 48 hours compared to baseline
Description: as §1, with “saline.” for “saline. Mice received a single dose of AZD5582 at 10 mg/kg, intraperitoneally.”
(§2) Interferon gamma reporter (IFN-γ-eYFP) or IL-12p40 reporter (IL12p40-eYFP) mice were anesthetized and dorsal skin-fold window chambers were installed as previously described (Thurber et al., 2013) and mice were treated with analgesic (Buprenorphine 0.1 mg/kg/day) for 3 days following chamber implantation. […] Anesthetized mice were kept on a heating pad kept at 37° C., vital signs monitored and mice were imaged using an Olympus FluoView FV1000MPE confocal imaging system (Olympus America). […] Sequential scanning (5 μm slices) with 405, 473, 559, and 635 nm lasers was performed using voltage and power settings that were optimized using fluorescence minus-one control mice prior to time lapse acquisition. […]

[2] = system: human tumor-infiltrating CD8^+ T cells; assay: IL-12 ex vivo studies: IFN-γ ELISA of stimulated patient tumor-infiltrating CD8+ T cells; assay type: cell-based; settings: aCD3 stimulation with IL-12, six cancer patients, 3 days
Source text: IL-12 ex vivo studies: Fresh tumor resections from six cancer patients undergoing surgical treatment at University Hospital Basel, Switzerland were used to assess whether IL-12 can directly activate human tumor-infiltrating CD8^+ T cells upon isolation of these cells ex vivo. Tumor tissue (two lung adenocarcinomas, three squamous cell carcinomas and one synovial sarcoma) was collected from six different patients undergoing primary surgical treatment between November 2015 and November 2017. The study was approved by the local Ethical Review Board (Ethikkommission Nordwestschweiz) and all patients consented in writing to the analysis of their tumor samples. The solid tumor lesions were mechanically dissociated and enzymatically digested using accutase (PAA), collagenase IV (Worthington), hyaluronidase (Sigma) and DNAse type IV (Sigma), directly after excision. Single cell suspensions were prepared and cryopreserved in liquid nitrogen in 90% fetal calf serum (FCS, Brunschwig Pan Biotech) and 10% dimethylsulfoxide (DMSO, Sigma) until further usage. […] Sorting purity was measured by reanalyzing the sorted cells and always reached >95% purity. […] IFN-γ secreted by these cultures was then measured by enzyme-linked immunosorbent assay according to the instructions by the manufacturer (BD, OptEIA human IFN-γ ELISA set). […]

[3] = system: Tumor-infiltrating CD8^+ T cells isolated from MC38 tumors; assay: In vitro restimulation of tumor-infiltrating CD8+ T cells isolated from MC38 tumors (intracellular IFN-γ, flow cytometry); assay type: cell-based, mice; settings: aCD3/CD28 stimulation with IL-12 (20 ng/ml), 72 hours
Description: Tumor tissue or tumor draining lymph nodes were isolated from mice and minced using surgical scissors. Tissues were then digested using 0.2 mg/ml Collagenase II (Worthington) in RPMI 1640 media (CellGro) at 37° C. for 30 minutes and then strained through a 40 μm filter (BD Falcon). Cell suspensions were incubated with Fc Block TruStain FcX Clone 93 (Biolegend) in PBS containing 0.5% BSA and 2 mM EDTA before staining with fluorochrome labeled antibodies. Antibodies against CD11b (M1/70, Biolegend), CD8a (53-6.7, Biolegend), CD45 (30-F11, BD), F4/80 (BM8, Biolegend), CD11c (N418, Biolegend), MHC II I-A/I-E (M5/114.15.2, Biolegend), CD103 (2E7, Biolegend), IFN-γ (XMG1.2, Biolegend) were used for marker staining. 7AAD viability staining was used to exclude dead cells from analysis. Samples were run on a LSR II flow cytometer and analyzed using FlowJo software (Treestar). For intracellular cytokine staining, samples were incubated for 5 hours with GolgiPlug (BD) at 1 μl per ml of culture media. Cells were then surface stained and then fixed and permeabilized using the BD Cytofix/Cytoperm kit (BD) according to manufacturer's protocol and stained for intracellular cytokines.
MC38 tumors were digested into single cell suspensions similar to tissue processing for flow cytometry analysis and were passed through a 40 μm filter. […]

B16F10 melanoma = B16F10 melanoma tumor model: tumor growth, survival, re-challenge; assay type: in vivo; settings: B16F10 melanoma-bearing mice, treatment as labelled
Description: Tumor bearing mice, with a tumor size of approximately 75 mm^3, were treated with 200 μg of aPD-1 and/or 100 μg of aCD40 intraperitoneally for immunotherapy studies. For combination treatment studies, both aPD-1 and aCD40 were administered at the same time. […] Mice received a single dose of AZD5582 at 10 mg/kg, intraperitoneally. […]

IFN-γ-eYFP^+ cells = assay: Intravital imaging of MC38 tumors in IFN-γ-eYFP reporter mice; assay type: in vivo; settings: recombinant IL-12, by day four, in the absence of aPD-1
Description: as §1, with “saline.” for “saline. Mice received a single dose of AZD5582 at 10 mg/kg, intraperitoneally.”
as §2

Molecule	effect of FTY720 on the antitumor response to aPD-1 (MC38 tumors; MC38, FTY720 1.25 mg/kg i.p. daily with aPD-1)	IL-12 production in vitro [1]	antitumor response, MC38 tumors (MC38 tumors)	fold increase of tumor-infiltrating IL-12^+ cells (IL-12p40-eYFP^+ cells) [fold]	IFN-γ production by CD8^+ T cells [2]	IFN-γ production by stimulated CD8^+ T cells [3]	antitumor response, B16F10 tumors (B16F10 melanoma)	fold increase of IFN-γ-eYFP^+ cells (IFN-γ-eYFP^+ cells) [fold]
CCCCCCCCc1ccc(CCC(N)(CO)CO)cc1 [FTY720]	did not affect the antitumor response to aPD-1 treatment	–	–	–	–	–	–	–
CN[C@@H](C)C(=O)N[C@H](C(=O)N1CCC[C@H]1C(=O)N[C@H]1c2ccccc2C[C@H]1OCC#CC#CCO[C@@H]1Cc2ccccc2[C@@H]1NC(=O)[C@@H]1CCCN1C(=O)[C@@H](NC(=O)[C@H](C)NC)C1CCCCC1)C1CCCCC1 [AZD5582]	–	potently enhanced IL-12 production in vitro	provided antitumor effects in vivo	4.0±1.3	–	–	–	–
IL-12: recombinant IL-12 in mouse studies; recombinant human IL-12p70 (PeproTech) in the human ex vivo studies (protein, UniProt P29459 23-219; P29460 23-328, looked up) Interleukin-12 subunit alpha: RNLPVATPDPGMFPCLHHSQNLLRAVSNMLQKARQTLEFYPCTSEEIDHEDITKDKTSTVEACLPLELTKNESCLNSRETSFITNGSCLASRKTSFMMALCLSSIYEDLKMYQVEFKTMNAKLLMDPKRQIFLDQNMLAVIDELMQALNFNSETVPQKSSLEEPDFYKTKIKLCILLHAFRIRAVTIDRVMSYLNAS Interleukin-12 subunit beta: IWELKKDVYVVELDWYPDAPGEMVVLTCDTPEEDGITWTLDQSSEVLGSGKTLTIQVKEFGDAGQYTCHKGGEVLSHSLLLLHKKEDGIWSTDILKDQKEPKNKTFLRCEAKNYSGRFTCWWLTTISTDLTFSVKSSRGSSDPQGVTCGAATLSAERVRGDNKEYEYSVECQEDSACPAAEESLPIEVMVDAVHKLKYENYTSSFFIRDIIKPDPPKNLQLKPLKNSRQVEVSWEYPDTWSTPHSYFSLTFCVQVQGKSKREKKDRVFTDKTSATVICRKNASISVRAQDRYYSSSWSEWASVPCS	–	–	robust antitumor responses	–	increased IFN-γ production by CD8^+ T cells in five out of six patients	substantially increased IFN-γ production	substantial antitumor effect	5.9±0.7
